US20200010567A1 (NEURIMMUNE, published 2020)

T1: (GA)15: H-CHHHHHH(GA)15-OH
T1 construct: synthetic, not coupled to BSA; also called poly-GA DPR protein peptide
T1 peptide: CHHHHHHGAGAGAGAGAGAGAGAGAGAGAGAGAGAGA

T2: GA10: H-(GA)10HHHHHH-NH2 (C-terminal amide)
T2 peptide: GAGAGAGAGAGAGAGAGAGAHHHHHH

T3: GA6: H-(GA)6HHHHHH-NH2
T3 peptide: H-GAGAGAGAGAGAHHHHHH-NH2

T4: GA20: H-(GA)20HHHHHH-NH2 (C-terminal amide)
T4 peptide: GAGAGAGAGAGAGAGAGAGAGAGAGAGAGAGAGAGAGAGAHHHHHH

B1: NI-308.28G1 (antibody, V domains shown)
VH: QVQLQESGPRLVKPSETLSLTCTVAGGSVNSYYWTWIQQSPGKGLEWLGRIYIAGRTNYNPSLTSRIALSVDTSRNQLSLKLTSVTAADTAIYYCARWGAESGDYYYGVDVWGPGTLVTVSS
VL: EIVMTQSPLSLPVTPGEPASISCKSSEGLLHSNGYTYLDWYLQKPGQAPQLLIFLASNRAAGVPDRFSGSGSGTDFTLKISRVEAEDVGVYYCMQAIQSPWTFGPGTKVEIK
notes: Recombinant complete human IgG1, kappa
B2: NI-308.15O7 (antibody, V domains shown)
VH: QVQLVESGGGVVQPGRSLRLSCAASGFTFSNHAMHWVRQAPGKGLEWVAVISYDGENTYYADSIEGRFTISRDNFKNTLFLQMYSLTADDTAMYFCARGGRRGHFTSYYLDYWGQGTLVTVSS
VL: CDIQMTQSPSSLSASVGDRVTITCRASQNIDKYLNWYQQIPGKAPKLLIYAASSLHSGVPSRFSGSGSGTDFSLTISSLQPEDFAIYYCQQSYSSFRTFGQGTKLEIK
B3: NI-308.18F7 (antibody, V domains shown)
VH: QVQLQESGPGLVKPSETLSVTCTVSGGSINDYYWNWIRQPAGKGLEWIGRIYASGTINYNPSLQSRVTMSIDTSKNQFSLDLISVSAADTAVYYCARWGQVVGDYYYGMDVWGQGTTVTVSS
VL: EIVLTQSPLSLSVTPGEPASISCKSSQSLQHTNGYNYLDWYLLKPGQSPQLLIFLTSNRASGVPDRFSGSGSGTNFTLKISRVEAEDVGVYYCMEGIQLWTFGQGTKLEIK
notes: as for B1
B4: NI-308.6B11 (antibody, V domains shown)
VH: EVQLVQSGAEVKRPGASVKVSCKVSGYTLTELSMHWVRQAPGKGLEWMGGFDPEDGETVYAQKFQGRVTMTEDTSTDTAYMELSSLRSEDTALYHCATYGSSWHWNEGNEGSYYFDYWGQGTLVTVSS
VL: CDIQMTQSPSSLSASVGDRVTITCQASQDISIYLNWYQQKPGKAPKLLIYDASNLETGVPSRFSGSGSGTDFTFTISGLQPEDVARYYCQQYDDLPITFGQGTRLEIK
notes: as for B1
B5: NI-308.5G2 (antibody, V domains shown)
VH: EVQLVQSGADLRNPGASVTVSCTASGYHFADNAINWLRQAPGQRLEWMGWINIYSGNTKYSQNFQGRVTFTRNTSASTAFMHLRSLRSEDTAVYFCARDPDSSGYYLPYFDYWGQGTLVTVSS
VL: DIQLTQSPDSLTLSLGERATINCKSSQSVFYNSNNKNYLAWYQQKPGQPPKLLMYWASTRESGVTDRFSGSGSGTDFTLTITNLQAEDVAVYYCQQFYSSPLTFGGGTKVEIK
notes: as for B1
B6: NI-308.45C2 (antibody, V domains shown)
VH: QLQLQESGPGLVKPSQILSLTCAISGDSVFSNSAAWNWIRQSPSRGLEWLGRTYYRSKWDNDYAPSVKSRISINPDTSKNQFSLQLNSVTPEDTAVYYCAREVAYCGGDCYSVSFDYWGQGTLVTVSS
VL: not shown
notes: as for B1

Target: T1, (GA)15: H-CHHHHHH(GA)15-OH
Assay: indirect ELISA, coated uncoupled peptide
Description: In brief, dipeptide repeat proteins were synthesized and purified by Schafer-N(Copenhagen, Denmark): (GA)₁₅: H-CHHHHHH(GA)₁₅-OH; (GP)₁₅: H-C(GP)₁₅-OH; (GR)₁₅: H-C(GR)₁₅-OH; (PA)₁₅: H-C(PA)₁₅-OH; (PR)₁₅: H—C(PR)₁₅-OH. 96-well microplates (Corning Incorporated, Corning, USA) were coated with dipeptide repeat protein peptides at a concentration of either 5 μg/ml or 20 μg/ml in coating buffer (15 mM Na₂CO₃, 35 mM NaHCO₃, pH 9.42). Non-specific binding sites were blocked for 1 h at room temperature with PBS/0.1% Tween®-20 containing 2% BSA (Sigma-Aldrich, Buchs, Switzerland). Primary antibodies were diluted to the indicated concentrations and incubated for 1 h at room temperature, followed by incubation with a donkey anti-human IgG Fcγ-specific antibody conjugated with HRP (Jackson ImmunoResearch Laboratories, Inc., West Grove, USA). Binding was determined by measurement of HRP activity in a standard colorimetric assay. EC₅₀ values were estimated by non-linear regression using GraphPad Prism software (San Diego, USA). The binding specificity and EC₅₀ of human-derived antibodies for C9orf72 dipeptide repeat protein peptides (GA)₁₅, (GP)₁₅, (GR)₁₅, (PA)₁₅ and (PR)₁₅ were determined by indirect ELISA.
Binder B1 has an EC50 of 1.1 nM. Binder B2 has an EC50 of 0.48 nM. Work on B3 yielded an EC50 of 1.5 nM. B4 was tested, and the EC50 was about 38.4 nM. B5 was tested, and the EC50 was about 15.3 nM.

Target: T2, GA10: H-(GA)10HHHHHH-NH2
Assay: indirect ELISA, coated His-tagged peptide
Description: (§1) In brief, dipeptide repeat proteins were synthesized and purified by Schafer-N (Copenhagen, Denmark): GA₂₀: H-(GA)₂₀HHHHHH-NH₂; GA₁₀: H-(GA)₁₀HHHHHH-NH₂; GA₆: H-(GA)₆HHHHHH-NH₂; GA₅: H-(GA)₅HHHHHH-NH₂; GA₄: H-(GA)₄HHHHHH-NH₂; GA₃: H-(GA)₃HHHHHH-NH₂; GA₂: H-(GA)₂HHHHHH-NH₂; GP₂₀: H-(GP)₂₀HHHHHH-NH₂; GP₁₀: H-(GP)₁₀HHHHHH-NH₂; GP₆: H-(GP)₆HHHHHH-NH₂; GP₅: H-(GP)₅HHHHHH-NH₂; GP₄: H-(GP)₄HHHHHH-NH₂; GP₃: H-(GP)₃HHHHHH-NH₂; GP₂: H-(GP)₂HHHHHH-NH₂. GR₂₀: H-(GR)₂₀HHHHHH-NH₂; GR₁₀: H-(GR)₁₀HHHHHH-NH₂; GR₆: H-(GR)₆HHHHHH-NH₂; GR₅: H-(GR)₅HHHHHH-NH₂; GR₄: H-(GR)₄HHHHHH-NH₂; GR₃: H-(GR)₃HHHHHH-NH₂; GR₂: H-(GR)₂HHHHHH-NH₂; PA₂₀: H-(PA)₂₀HHHHHH-NH₂; PA₁₀: H-(PA)₁₀HHHHHH-NH₂; PA₆: H-(PA)₆HHHHHH-NH₂; PA₅: H-(PA)₅HHHHHH-NH₂; PA₄: H-(PA)₄HHHHHH-NH₂; PA₃: H-(PA)₃HHHHHH-NH₂; PA₂: H-(PA)₂HHHHHH-NH₂; PR₂₀: H-(PR)₂₀HHHHHH-NH₂; PR₁₀: H-(PR)₁₀HHHHHH-NH₂; PR₆: H-(PR)₆HHHHHH-NH₂; PR₅: H-(PR)₅HHHHHH-NH₂; PR₄: H-(PR)₄HHHHHH-NH₂; PR₃: H-(PR)₃HHHHHH-NH₂; PR₂: H-(PR)₂HHHHHH-NH₂. 96-well microplates (Corning Incorporated, Corning, USA) were coated with dipeptide repeat protein peptides at a concentration of 50 μg/ml in coating buffer (15 mM Na₂CO₃, 35 mM NaHCO₃, pH 9.42). Non-specific binding sites were blocked for 1 h at room temperature with PBS/0.1% Tween®-20 containing 2% BSA (Sigma-Aldrich, Buchs, Switzerland). Primary antibodies were diluted to the indicated concentrations and incubated 1 h at room temperature, followed by incubation with a donkey anti-human IgG Fcγ-specific antibody conjugated with HRP (Jackson ImmunoResearch Laboratories, Inc., West Grove, USA). Binding was determined by measurement of HRP activity in a standard colorimetric assay. EC₅₀ values were estimated by non-linear regression using GraphPad Prism software (San Diego, USA).
Work on B1 yielded an EC50 of 0.9 nM. Work on B6 yielded an EC50 of 7.6 nM. B3 gave an EC50 of 0.78 nM. Work on B4 yielded an EC50 of 27.7 nM. B5 was tested, and the EC50 was 5.7 nM.

Target: T3, GA6: H-(GA)6HHHHHH-NH2
Assay: indirect ELISA, coated His-tagged peptide
Description: as §1
For B6, the EC50 was over 200 nM. For B3, the EC50 was over 200 nM. Work on B4 yielded an EC50 of over 200 nM. Work on B5 yielded an EC50 of over 200 nM.

Target: T4, GA20: H-(GA)20HHHHHH-NH2
Assay: sandwich ELISA, peptide captured by anti-His antibody
Description: (§2) In brief, His-tagged dipeptide repeat protein peptides were synthesized and purified by Schafer-N(Copenhagen, Denmark): GA₂₀: H-(GA)₂₀HHHHHH-NH₂; GA₁₀: H-(GA)₁₀HHHHHH-NH₂; GA₆: H-(GA)₆HHHHHH-NH₂; GA₅: H-(GA)₅HHHHHH-NH₂; GA₄: H-(GA)₄HHHHHH-NH₂; GA₃: H-(GA)₃HHHHHH-NH₂; GA₂: H-(GA)₂HHHHHH-NH₂; GP₂₀: H-(GP)₂₀HHHHHH-NH₂; GP₁₀: H-(GP)₁₀HHHHHH-NH₂; GP₆: H-(GP)₆HHHHHH-NH₂; GP₅: H-(GP)₅HHHHHH-NH₂; GP₄: H-(GP)₄HHHHHH-NH₂; GP₃: H-(GP)₃HHHHHH-NH₂; GP₂: H-(GP)₂HHHHHH-NH₂. 96-well microplates (Corning Incorporated, Corning, USA) were coated with monoclonal mouse anti-His tag antibody (Takara Bio Europe/Clontech, Saint-Germain-en-Laye, France) at a concentration of 10 μg/ml in coating buffer (15 mM Na₂CO₃, 35 mM NaHCO₃, pH 9.42) overnight at 4° C. Non-specific binding sites were blocked for 1 h at room temperature with PBS/0.1% Tween®-20 containing 2% BSA (Sigma-Aldrich, Buchs, Switzerland). After a washing step, His-tagged C9orf72 DPR protein peptides at equal concentration of either 1 μM or 5 μM in PBS (pH 7.4) were added for target-trapping by the anti-His tag antibody for 1 h at room temperature. […] Antibody binding to DPR protein peptides was detected by a donkey anti-human IgG Fcγ-specific antibody conjugated with HRP at 1:5000 dilution (Jackson ImmunoResearch Laboratories, Inc., West Grove, USA) for 1 h at RT. Binding was determined by measurement of HRP activity in a standard colorimetric assay. EC₅₀ values were estimated by non-linear regression using GraphPad Prism software (San Diego, USA).
In the case of B1, the EC50 is reported as 0.4 nM. B2 gave an EC50 of 9 nM. In the case of B3, the EC50 is reported as 0.45 nM.

Target: T2, GA10: H-(GA)10HHHHHH-NH2
Assay: as above
Description: as §2
With B1 the EC50 was 0.46 nM. With B2 the EC50 was over 400 nM. For B3, the EC50 was 0.34 nM.
